Changes are numbered by the printed parent chain. In names and notes the source's numbering stands.
B1: AANAT2 (Sparus aurata) (protein)
chain: MTQQVSGSPFFKPFFLKTPVSLLRQRRHTLPASEFRNLTPQDAISVFEIEREAFVSVSGECPLTLDEVLNFLGQCPELSLGWFEEGQLVAFIIGSGWGKERLSQEAMTQHVPDSPAVHIHVLSVHRHCRQQGKGSILLWRFLQYLRCIPGLRRALLICEEYLVPFYQKAGFKEKGPSAISISNMQFQEMEYTIGGQAYTRRNSGC
B2: AANAT2 (Sparus aurata; S123A) (protein)
chain: B1 chain with S123A
B3: AANAT2 (Sparus aurata; G73T/L69R/N70H/Q74L) (protein)
chain: B1 chain with L69R, N70H, G73T, Q74L
B4: AANAT2 (Sparus aurata; I157M) (protein)
chain: B1 chain with I157M

Columns and labels:
[1] = substrate: NCCc1c[nH]c2ccc(O)cc12; experiment: colorimetric assay of CoASH release, non-linear regression; assay type: biochemical, Sparus aurata; details: near-saturating AcCoA; apparent Km
[2] = substrate: NCCc1c[nH]c2ccccc12; experiment: as above; assay type: biochemical, Sparus aurata; details: near-saturating AcCoA; apparent Km

Protein	Km [1]	Km [2]
B1	2200 µM	2000 µM
B2	650 µM	650 µM
B3	880 µM	1200 µM
B4	940 µM	900 µM
